According to publication PMC10643120 (Nature structural & molecular biology, 2023):

Target: the molecule itself
Experiment: SEC-MALS; 100 μL of purified protein at 5 mg/mL on Superdex 200 Increase 10/300 GL in buffer GF (300 mM NaCl, 1 mM DTT)

| Protein | stoichiometry N |
| --- | --- |
| 201Φ2-1 gp2 (ChmB), purified (natural protein, Pseudomonas phage 201Φ2-1, UniProt B3FJX8 1-179, looked up) MTLIAKPAVPDTEVLNHIGRDLLLKDEDGSFKLQRHLKILTEEGLVHQVSFAQVDGLLNILDSTRETPPCSPLQYLITHYDLKDLVELGKDGWLVPEYQVVVMHSSKTVRFEGKLTRVGSIDKEFTFALGGFDFIQQLSLARCIASLGKEFEQVIGTFDCTYVFKTGPDGISVSTDIGV | 2 |
| gp2 homolog of phage Psa21 (gp3), purified (natural protein, Pseudomonas phage Psa21, UniProt A0A481W4E6 1-229, looked up) MNPVYDIFNDIANNMVTVENKEEFLSNTVRLVGASGKEHVLSIAQAQLLLGVLDGSHQFLTDYNPLEFLLFSYQFQDKIKLKYVAVQYQIIYDADDDSIFVSGVTRHPMTVVGHPDYVAGASVPIETFQTTIPNVGLYGGLALVNCIATQSPDFAPVKGSFGGSFIFEFDGGKQSIRRYVPAEIDEPVIHKEELQEALDEAVKKFVPSAAPKVEFNGIKDTSTKTEQEI | 2 |
| ΦPA3 gp2 (ChmB), purified (natural protein, Pseudomonas phage ΦPA3, UniProt F8SJN3 1-197, looked up) MTDVAYPYLETSTLFDNIVKGQILEPDAESPQLSHVLKITDAAGIGHEVTFFQLSILLAILQGNKHELTDNQPHQYLVNQWVLTDLHNIYDEGYVMTSHRVIVDHVEEVATFTGTLVHQKTIRSHPNWQEGFTAPVKEFEFNLENFGIFHQIVFSQCIANLTPELDWVARTFGHSYIFEMEGRNVRVASIQEEGTTE | 2 |
